# Values of other authors, collected in article PMC2666074 (Biochemistry, 2008).
# B1: Siah-1: Siah-1 overexpressed by transient transfection of pSiah-1-FLAG (protein, UniProt Q8IUQ4 1-282, looked up)
# E3 ubiquitin-protein ligase …: MSRQTATALPTGTSKCPPSQRVPALTGTTASNNDLASLFECPVCFDYVLPPILQCQSGHLVCSNCRPKLTCCPTCRGPLGSIRNLAMEKVANSVLFPCKYASSGCEITLPHTEKADHEELCEFRPYSCPCPGASCKWQGSLDAVMPHLMHQHKSITTLQGEDIVFLATDINLPGAVDWVMMQSCFGFHFMLVLEKQEKYDGHQQFFAIVQLIGTRKQAENFAYRLELNGHRRRLTWEATPRSIHEGIATAIMNSDCLVFDTSIAQLFAENGNLGINVTISMC
# modifications: FLAG tag
# Tested on: β-catenin in HEK293 cells
# Settings: no detectable levels of S100A6, ref Matsuzawa and Reed (2001)
molecule,measurement,value
B1,"level of β-catenin upon Siah-1 transfection, in words",reduced levels of β-catenin
